Experimental data taken from publication PMC7125077, “In TFIIH the Arch domain of XPD is mechanistically essential for transcription and DNA repair” (Nature Communications, 2020).

Target: human XPD, wild type (XPD-FLAG) (human, UniProt P18074 1-760)
Experiment: cell-based or functional assay

in vitro transcription of TFIIH reconstituted from rIIH6, CAK and XPD, % of wild type: 100%
B1: human CDK activating kinase complex (CAK), wild type: MAT1 / CDK7-Strep / Cyclin H (complex)
chain 1: MDDQGCPRCKTTKYRNPSLKLMVNVCGHTLCESCVDLLFVRGAGNCPECGTPLRKSNFRVQLFEDPTVDKEVEIRKKVLKIYNKREEDFPSLREYNDFLEEVEEIVFNLTNNVDLDNTKKKMEIYQKENKDVIQKNKLKLTREQEELEEALEVERQENEQRRLFIQKEEQLQQILKRKNKQAFLDELESSDLPVALLLAQHKDRSTQLEMQLEKPKPVKPVTFSTGIKMGQHISLAPIHKLEEALYEYQPLQIETYGPHVPELEMLGRLGYLNHVRAASPQDLAGGYTSSLACHRALQDAFSGLFWQPS
chain 2: MALDVKSRAKRYEKLDFLGEGQFATVYKARDKNTNQIVAIKKIKLGHRSEAKDGINRTALREIKLLQELSHPNIIGLLDAFGHKSNISLVFDFMETDLEVIIKDNSLVLTPSHIKAYMLMTLQGLEYLHQHWILHRDLKPNNLLLDENGVLKLADFGLAKSFGSPNRAYTHQVVTRWYRAPELLFGARMYGVGVDMWAVGCILAELLLRVPFLPGDSDLDQLTRIFETLGTPTEEQWPDMCSLPDYVTFKSFPGIPLHHIFSAAGDDLLDLIQGLFLFNPCARITATQALKMKYFSNRPGPTPGCQLPRPNCPVETLKEQSNPALAIKRKRTEALEQGGLPKKLIF
chain 3: MYHNSSQKRHWTFSSEEQLARLRADANRKFRCKAVANGKVLPNDPVFLEPHEEMTLCKYYEKRLLEFCSVFKPAMPRSVVGTACMYFKRFYLNNSVMEYHPRIIMLTCAFLACKVDEFNVSSPQFVGNLRESPLGQEKALEQILEYELLLIQQLNFHLIVHNPYRPFEGFLIDLKTRYPILENPEILRKTADDFLNRIALTDAYLLYTPSQIALTAILSSASRAGITMESYLSESLMLKENRTCLSQLLDIMKSMRNLVKKYEPPRSEEVAVLKQKLERCHSAELALNVITKKRKGYEDDDYVSKKSKHEEEEWTDDDLVESL
